PMC10794598

Tests used:
[1] = target: NB-RBD (ER-retained receptor-binding domain of the SARS-CoV-2 S protein expressed transiently in N. benthamiana) (SARS-CoV-2) (UniProt P0DTC2); experiment: non-reducing PAGE Western blot
[2] = target: BY2-RBD (ER-retained receptor-binding domain of the SARS-CoV-2 S protein expressed stably in Nicotia (SARS-CoV-2) (UniProt P0DTC2)); experiment: non-reducing PAGE Western blot

Substance | stoichiometry N [1] | stoichiometry N [2]
NB-RBD (ER-retained receptor-binding domain of the SARS-CoV-2 S protein expressed transiently in N. benthamiana) (from UniProt P0DTC2 319-541) (domain or fragment) | 4 | –
BY2-RBD (ER-retained receptor-binding domain of the SARS-CoV-2 S protein expressed stably in Nicotia (from UniProt P0DTC2 319-541) (domain or fragment) | – | 4
